Consider four substances from patent US20190183976A1.

One assay has as its target CXCR4 (human) (UniProt P61073). As to the kind of experiment: cell-based or functional assay.
In a further assay the target is CXCR4-VN (human) (UniProt P61073). As to the kind of experiment: BiFC, U-2 OS cells, CXCR4-VN & GPCRx-VC; score=(positive cells/total cells)x100.
CXCR4-VN (human), sequence (P61073 whole entry): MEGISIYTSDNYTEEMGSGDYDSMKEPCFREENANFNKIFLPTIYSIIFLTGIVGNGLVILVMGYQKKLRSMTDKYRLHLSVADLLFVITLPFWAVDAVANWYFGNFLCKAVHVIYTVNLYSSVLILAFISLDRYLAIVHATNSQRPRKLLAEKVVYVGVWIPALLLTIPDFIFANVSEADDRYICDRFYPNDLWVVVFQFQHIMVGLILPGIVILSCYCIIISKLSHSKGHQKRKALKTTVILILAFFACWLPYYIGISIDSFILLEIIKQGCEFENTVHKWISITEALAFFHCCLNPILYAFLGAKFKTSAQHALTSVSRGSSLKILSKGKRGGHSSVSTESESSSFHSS

CXCR4 (human), sequence (P61073 whole entry): as above
CCR5-VC, P51681 1-352 (receptor; other documents disagree on this pair), sequence (P51681 whole entry): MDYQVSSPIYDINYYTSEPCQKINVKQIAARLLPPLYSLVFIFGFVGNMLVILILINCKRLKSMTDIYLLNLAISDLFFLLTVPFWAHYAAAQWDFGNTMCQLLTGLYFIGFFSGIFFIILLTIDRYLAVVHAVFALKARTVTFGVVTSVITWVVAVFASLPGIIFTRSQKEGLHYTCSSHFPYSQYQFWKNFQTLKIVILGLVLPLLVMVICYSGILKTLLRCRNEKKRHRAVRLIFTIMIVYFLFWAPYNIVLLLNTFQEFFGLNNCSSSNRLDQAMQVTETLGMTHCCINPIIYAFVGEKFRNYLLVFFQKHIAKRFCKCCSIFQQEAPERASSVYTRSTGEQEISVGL

As to TZ14011 (peptide), in the assay with CXCR4 (human), the IC50 of Ca2+ response; MDA-MB-231 expressing CXCR4+ADRB2; + carvedilol 10 µM; CXCL12 20 nM + salmeterol 1 µM turned out to be 0.02 nM, the IC50 of Ca2+ response; MDA-MB-231 expressing CXCR4+ADRB2; no carvedilol; CXCL12 20 nM + salmeterol 1 µM is 17.8 nM, the IC50 of Ca2+ response; MDA-MB-231 expressing CXCR4 alone; CXCL12 20 nM + salmeterol 1 µM is 23.9 nM and the fold decrease of the IC50 of Ca2+ response in CXCR4-ADRB2 cells on co-treatment with carvedilol is 890 fold.

Turning to BKT140 (peptide), in the assay with CXCR4 (human), the IC50 of Ca2+ response; MDA-MB-231 with CXCR4+ADCYAP1R1; CXCL12 20 nM + PACAP-38 1 nM; + M65 1 µM turned out to be 7.46 nM, the IC50 of Ca2+ response; MDA-MB-231 with CXCR4+ADCYAP1R1; CXCL12 20 nM + PACAP-38 1 nM; + PACAP-(6-38) 1 µM came out at 19.6 nM, the IC50 of Ca2+ response; MDA-MB-231 with CXCR4+ADCYAP1R1; CXCL12 20 nM + PACAP-38 1 nM; no ADCYAP1R1 inhibitor was 213 nM and the IC50 of Ca2+ response; MDA-MB-231 with CXCR4+C5AR1; CXCL12 20 nM + C5a 0.03 nM; + W54011 10 µM was found to be 9.72 nM. In addition, in the assay with CXCR4 (human), the IC50 of Ca2+ response; MDA-MB-231 with CXCR4+C5AR1; CXCL12 20 nM + C5a 0.03 nM; no C5AR1 inhibitor was 118 nM, the IC50 of Ca2+ response; MDA-MB-231 with CXCR4+CALCR; CXCL12 20 nM + calcitonin 100 nM; + CT-(8-32) (salmon) 10 µM is 15.6 nM and the IC50 of Ca2+ response; MDA-MB-231 with CXCR4+CALCR; CXCL12 20 nM + calcitonin 100 nM; no CALCR inhibitor was 1040 nM.

On to “CCR5-VC, P51681 1-352 (receptor; other documents disagree on this pair)”, for which the BiFC score with CXCR4-VN (human) turned out to be 44.

For 12G5 (antibody), in the assay with CXCR4 (human), the IC50 of Ca2+ response; MDA-MB-231 expressing CXCR4+ADRB2; + carvedilol 10 µM; CXCL12 20 nM + salmeterol 1 µM is 2.78 nM, the IC50 of Ca2+ response; MDA-MB-231 expressing CXCR4+ADRB2; no carvedilol; CXCL12 20 nM + salmeterol 1 µM is 13.9 nM and the IC50 of Ca2+ response; MDA-MB-231 expressing CXCR4 alone; CXCL12 20 nM + salmeterol 1 µM was 80.2 nM.
